Read-outs that look alike come from different tables or passages of the source.

The test system of assay [1] is adult rat trigeminal ganglia neurons. Put plainly: CGRP release from cultured rat trigeminal ganglia neurons (ELISA). Type of assay: cell-based. As to conditions: Neuron, 0.5 h. A general note: An ELISA detects its analyte on a solid surface through an enzyme-linked reagent.
The test system is the same in assay [2]. Described as above. Format: cell-based. The protocol:
(§1) TG Cultures were prepared from 8-10-week Sprague-Dawley rats. Following cervical dislocation and cardiac cessation, trigeminal ganglia (TG) were dissociated and collected in ice cold HBSS buffer. TGs were digested in 20 U/ml papain for 20 min followed by another 20-min enzymatic digestion in 2% Collagenase Type 4 and Dispase II in 37° C. water bath. Digested TG ganglia were suspended in Leibovitz's L15 medium containing 10% Fetal Bovine Serum, 1% penicillin/streptomycin, 18.5 mM NaHCO3, 38 mM glucose. Cell suspensions were filtered in a 70 μm then a 40 μm cell strainer and were layered onto Leibovitz's L15 medium containing 4% BSA cushion followed by slow speed centrifuge at 100 g, 10 min. Cell pellets were suspended with DMEM medium containing 10% Fetal Bovine Serum and 1% penicillin/streptomycin. Cells were plated onto 96-well plates and cultured for 24 hours at 37° C., 5% CO2. Recombinant rat artemin protein and vehicle control buffer were added into appropriate wells for 24-hour pre-incubation as needed. For experiments testing the effect of an anti-artemin antibody or RET inhibitor, these agents were added to the TG culture simultaneously with artemin for 24 h for CGRP and SP assay or 48 h for PACAP assay. After 24 h or 48 h incubation, cell culture medium was removed and assay buffer containing TRPV1 agonist capsaicin (CAP) or TRPA1 agonist allyl isothiocyanate (AITC) were added into wells and incubated at 37° C., 10 min to trigger neuropeptide release. At the end of stimulation, the supernatant was collected and CGRP and SP content were measured using ELISA assay kits (Bertin Bioreagent). For PACAP assay, cells were cultured and pre-incubated with artemin for 48 hours prior to agonist stimulation to trigger PACAP release. PACAP content in supernatant was measured using an in-house developed ELISA assay.

The test system of assay [3] is rat TG neurons. Put plainly: PACAP release from cultured rat trigeminal ganglia neurons (in-house ELISA). Format: cell-based. The settings on record: artemin treatment for 48 hours. The protocol: as §1, with “For experiments testing the effect of an anti-artemin antibody or RET inhibitor, these agents were added to the TG culture simultaneously with artemin for 24 h for CGRP and SP assay or 48 h for PACAP assay. After 24 h or 48 h incubation, cell culture medium was removed and assay buffer containing TRPV1 agonist capsaicin (CAP) or TRPA1 agonist allyl isothiocyanate (AITC) were added into wells and incubated at 37° C., 10 min to trigger neuropeptide release.” left out, “For PACAP assay, cells were cultured and pre-incubated with artemin for 48 hours prior to agonist stimulation to trigger PACAP release.” left out

For assay [4], the system named is rat TG neurons. Put plainly: Substance P release from cultured rat trigeminal ganglia neurons (ELISA). Type of assay: cell-based. The settings on record: artemin pre-incubation. The protocol: as §1, with “For experiments testing the effect of an anti-artemin antibody or RET inhibitor, these agents were added to the TG culture simultaneously with artemin for 24 h for CGRP and SP assay or 48 h for PACAP assay. After 24 h or 48 h incubation, cell culture medium was removed and assay buffer containing TRPV1 agonist capsaicin (CAP) or TRPA1 agonist allyl isothiocyanate (AITC) were added into wells and incubated at 37° C., 10 min to trigger neuropeptide release.” left out, “For PACAP assay, cells were cultured and pre-incubated with artemin for 48 hours prior to agonist stimulation to trigger PACAP release.” left out

Assay [5] concerns rat (preclinical migraine model). Kind of assay: Artemin dural infusion study, periorbital von Frey sensitivity. Format: in vivo. The settings on record: local dural infusion daily for five consecutive days, 0.018, 0.18 and 1.8 μg; versus vehicle, first two weeks. The protocol: Briefly, three different doses of rat artemin protein, inflammatory soup cocktail and vehicle buffer were administered daily via a stainless-steel cannula (22GA, Plastics One) embedded onto dura for 5 consecutive days to produce persistent facial hypersensitivity. Sensory testing occurred during the day using von Frey filaments with reproducible calibrated buckling forces varying from 0.4-10 g utilizing the simplified Chaplan up-and-down method. Allodynia was tested by perpendicularly touching the periorbital region causing slight buckling of the filament for approximately 5 seconds. The periorbital withdrawal threshold (g) was calculated based on the response pattern and the force of the final filament. The periorbital threshold data was recorded on the side of artemin, Inflammatory Soup Cocktail, or vehicle infusion only.

In the case of `C=CCN=C=S` [AITC, allyl isothiocyanate, reference compound], the EC50 (commonly the concentration that produces a half-maximal response) in assay [1] (Rattus norvegicus, read-out: EC50 of AITC for CGRP release) amounted to 6600 nM; in assay [2] (Rattus norvegicus, Neuron, 24 h, read-out: EC50 of AITC for CGRP release) it was 6940 nM; in assay [2] (Rattus norvegicus, Neuron, read-out: EC50 of AITC for CGRP release) it was 17800 nM.
For the molecule `COc1cc(CNC(=O)CCCC/C=C/C(C)C)ccc1O` [CAP, capsaicin, reference compound], the half-maximal effective concentration (EC50) in assay [1] (CAP+ARTN (30 min), 10 ng/ml rat artemin, read-out: EC50 of CAP for CGRP release) turned out to be 17.9 nM; in assay [2] (Neuron, CAP+ARTN (24 h), 10 ng/ml rat artemin, read-out: EC50 of CAP for CGRP release) it was 20.2 nM; in assay [2] (Rattus norvegicus, Neuron, CAP alone, no artemin, read-out: EC50 of CAP for CGRP release), 21.6 nM.

B1: artemin: Recombinant rat artemin protein, member of GDNF ligand family (protein)
chain: AGTRSSRARATDARGCRLRSQLVPVSALGLGHSSDELIRFRFCSGSCRRARSPHDLSLASLLDAGALRSPPGSRPISQPCCRPTRYEAVSFMDVNSTWRTVDHLSATACGCLG
B1: in the assay on rat TG neurons [3], the “effect on CAP- and AITC-stimulated PACAP release” value is recorded as “potentiated”. In addition, the “effect on CAP- and AITC-stimulated Substance P (SP) release” value in the assay on rat TG neurons [4] is on record as “dose-dependently increased”. Besides, the “EC50 for artemin-potentiation of CGRP release” value in assay [2] (AITC stimulation, 24 hours of treatment) came out at 0.092 ng/mL; in assay [2] (CAP stimulation, 24 hours of treatment), 0.028 ng/mL. In addition, in assay [2] (AITC stimulation, 24 hours of treatment, read-out: EC50 for artemin-potentiation of CGRP release), the EC50 was 0.0038 nM. In assay [2] (CAP and AITC fixed at ~EC50, artemin range 0.001 to 100 ng/ml), the “artemin concentration reaching maximal effect on stimulated CGRP release” value came to 1 ng/mL. The “periorbital sensitivity to mechanical stimulation” value in assay [5] is given as “significantly increased”.

The record behind these values is US20250154236A1, “PREVENTION AND TREATMENT OF HEADACHES” (GlaxoSmithKline Intellectual Property (No. 3) Limited, priority 2022, published 2025).
